Consider one molecule from patent US20190119406A1 (BISON THERAPEUTICS, published 2019).

This test concerns the target T1, Mutant OA chain (long chain, CH1-hinge-CH2-CH3 with P395K, P396K, V397K) (human, UniProt P01857-1 1-330 = IgG part, P395K; P396K; V397K).
T1 construct: domain: CH1-hinge-CH2-CH3; Expressed alone it is expected as a long chain homodimer; also called OA mutation chain; Mutation OA chain
Description: three independent co-transfections in HEK293, protein A bead pull-down, SDS-PAGE (FIG. 6).
Description: DNA encoding long chain and short chain were mixed with 1:1 ratio and transfected into HEK293 cells. Three days later, cell culture supernatants were harvested and subjected to magnetic protein A beads pull-down. Proteins bound to magnetic beads were analyzed by SDS-PAGE electrophoresis.
Various positive charged and negative charged polypeptide chain combinations were co-expressed in HEK 293 cells. […] Three days after transfection, cell culture supernatants were harvested by centrifugation and subjected to protein A magnetic beads (Pierce) pull down. Protein products bound on magnetic beads were characterized based on their mobility on SDS-PAGE gel electrophoresis. Collected protein A magnetic beads with bound proteins were re-suspended in 30 μL PBS buffer, mixed with 30 μL of SDS-PAGE loading buffer and boiled for 5 min. Half volume of boiled samples was loaded onto 10% SDS-PAGE to separate long chain homodimer, long chain and short chain heterodimer and short chain homodimer.

B1: Mutant OB chain (short chain, hinge-CH2-CH3 with T394D, P395D, P396D) (other, human, UniProt P01857-1 104-330, looked up, name in EU numbering)
chain: DKTHTCPPCPAPELLGGPSVFLFPPKPKDTLMISRTPEVTCVVVDVSHEDPEVKFNWYVDGVEVHNAKTKPREEQYNSTYRVVSVLTVLHQDWLNGKEYKCKVSNKALPAPIEKTISKAKGQPREPQVYTLPPSRDELTKNQVSLTCLVKGFYPSDIAVEWESNGQPENNYKTDDDVLDSDGSFFLYSKLTVDKSRWQQGNVFSCSVMHEALHNHYTQKSLSLSPGK
notes: domain: hinge-CH2-CH3; also called OB mutation chain; Mutation OB chain
In the case of B1, the binding result is listed as “binds”.
